Data published in patent US20250092426, “CAS ENDONUCLEASES AND RELATED METHODS” (Flagship Pioneering Innovations VII, LLC, published 2025).

Molecular target: T1, CasEnd-2 (synthetic construct)
T1 chain: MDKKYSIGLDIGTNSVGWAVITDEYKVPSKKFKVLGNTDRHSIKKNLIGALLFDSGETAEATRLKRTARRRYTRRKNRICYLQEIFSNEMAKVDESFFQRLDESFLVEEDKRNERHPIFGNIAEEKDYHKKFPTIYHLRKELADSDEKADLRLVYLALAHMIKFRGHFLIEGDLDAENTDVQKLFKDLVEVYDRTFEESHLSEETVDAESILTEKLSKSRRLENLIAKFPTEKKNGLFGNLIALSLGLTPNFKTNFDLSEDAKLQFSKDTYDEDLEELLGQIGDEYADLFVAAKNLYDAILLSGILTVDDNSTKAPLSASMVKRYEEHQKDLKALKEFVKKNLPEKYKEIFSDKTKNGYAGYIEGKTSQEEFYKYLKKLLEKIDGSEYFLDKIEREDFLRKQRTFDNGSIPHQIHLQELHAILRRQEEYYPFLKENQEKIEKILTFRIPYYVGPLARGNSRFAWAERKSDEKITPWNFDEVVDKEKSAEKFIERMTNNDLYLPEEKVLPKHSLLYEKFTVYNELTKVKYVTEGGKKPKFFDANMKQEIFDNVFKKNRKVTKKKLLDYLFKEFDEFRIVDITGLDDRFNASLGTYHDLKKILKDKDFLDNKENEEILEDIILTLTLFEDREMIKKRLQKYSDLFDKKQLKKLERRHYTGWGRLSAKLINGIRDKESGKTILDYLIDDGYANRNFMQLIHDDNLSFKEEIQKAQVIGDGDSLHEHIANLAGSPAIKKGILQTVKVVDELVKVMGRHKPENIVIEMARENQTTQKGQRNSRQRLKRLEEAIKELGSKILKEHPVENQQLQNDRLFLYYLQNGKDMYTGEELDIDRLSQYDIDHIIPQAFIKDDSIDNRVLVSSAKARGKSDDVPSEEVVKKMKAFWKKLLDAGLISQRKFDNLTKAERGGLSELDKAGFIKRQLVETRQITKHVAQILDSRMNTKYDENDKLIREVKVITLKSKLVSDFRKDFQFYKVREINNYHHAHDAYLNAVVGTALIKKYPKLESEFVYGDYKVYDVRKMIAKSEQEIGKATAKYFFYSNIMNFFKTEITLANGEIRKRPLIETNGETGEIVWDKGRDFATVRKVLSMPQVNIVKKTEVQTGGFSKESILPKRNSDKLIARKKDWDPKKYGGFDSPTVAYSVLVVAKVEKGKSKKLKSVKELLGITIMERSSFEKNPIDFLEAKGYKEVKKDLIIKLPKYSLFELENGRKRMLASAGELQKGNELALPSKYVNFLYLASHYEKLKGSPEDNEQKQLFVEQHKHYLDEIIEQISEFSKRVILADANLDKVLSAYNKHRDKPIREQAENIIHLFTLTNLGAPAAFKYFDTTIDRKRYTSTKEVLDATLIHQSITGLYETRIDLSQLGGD
Test: cell_activity; +++; HEK293T; PAM not stated
Description: The ability of the candidate endonucleases, including endonucleases 1-38 (CasEnds 1-38) (set forth in Table 1 and SEQ ID NOS: 1-38, respectively), to mediate target nucleic acid editing was assessed utilizing a blue fluorescent protein (BFP) to green fluorescent protein (GFP) conversion assay, wherein programmed nucleotide editing of the BFP gene was measured by the expression of GFP (signifying the conversion of […] via the programmed nucleotide edit in the BFP gene). The conversion assay was conducted utilizing the reverse transcriptase-based system (as described above in Example 2) comprising a template RNA (designed to convert BFP to GFP) and a fusion protein comprising a retroviral reverse transcriptase and the individual subject Cas endonuclease. The amino acid sequence of the base portion of the fusion protein (without the individual subject Cas endonuclease) is set forth in Table 7 (SEQ ID NO: 43).
Briefly, 200 ng of plasmid DNA encoding the subject fusion protein (containing one of the subject CasEnds) and 200 ng of template RNA (in plasmid format) were added to 25 μL SF buffer containing 250,000 HEK293T BFP-expressing cells. Nucleofection was mediated utilizing program DS-150. The day of nucleofection was marked as day 0. At day 4, the cells were harvested and analyzed by flow cytometry to assess the level of BFP and GFP expression in HEK293T cells. Cells having GFP signal were defined as having undergone a successful editing event, and the percent of cells that were GFP+ on day 4 was used to determine the performance of each Cas endonuclease.

B1: BFP-to-GFP template RNA ; BFP reporter protospacer (ssRNA ; dsDNA)
RNA: GCCGAAGCACUGCACGCCGUGUUUUAGAGCUAGAAAUAGCAAGUUAAAAUAAGGCUAGUCCGUUAUCAACUUGAAAAAGUGGCACCGAGUCGGUGCACCCUGACGUACGGCGUGCAGUGCUU
DNA 1: GCCGAAGCACTGCACGCCGT
DNA 2: ACGGCGTGCAGTGCTTCGGC
For B1, the activity was ≥ 100 % of reference.
